B1: HDV Ribozyme (parent)
chain: GGCCGGCAUGGUCCCAGCCUCCUCGCUGGCGCCGGCUGGGCAACAUUCCGAGGGGACCGUCCCCUCGGUAAUGGCGAAUGGGACCCA

Variants of: B1
Experiment: self-cleavage, relative activity (ratio to wild type); higher = more cleavage; co-transcriptional

Variant | self-cleavage
GGCCGGCAUGGUACCAGCCUCCUCGCUGGCGCCGGCUGGGCAGCAUUCCGAGGGGACCGUCCCCUCGGUAAUGGCGAAUGGGACCCA [C13A A43G] | 0.0831
GGCCGGCAUGGGCCCAGCCUCCUCGCUGGCGCCGGCUGGGCAACAUUCCGAGGGGACCGUCCCCUCGGUAAUGACGAAUGGGACCCA [U12G G74A] | 0.18
GGCCGGCAUGGGCCCAGCCUCCUCGCUGGCGCCGGCUGGGCAACAUUCCGAGGGGACCGUCCCCUCGGUAAUGUCGAAUGGGACCCA [U12G G74U] | 0.453
GGCCGGCAUGGGCCCAGCCUCCUCGCUGGCGCCGACUGGGCAACAUUCCGAGGGGACCGUCCCCUCGGUAAUGGCGAAUGGGACCCA [U12G G35A] | 0.19
GGCCGGCAUGGUACCAGCCUCCUCGCUGGCGCCGGCUGGGCAACAUUCCGAGGGGGCCGUCCCCUCGGUAAUGGCGAAUGGGACCCA [C13A A56G] | 0.101
GGCCGGCAUGGGCCCAGCCUCCUCGCUGGCGCCGGCUGGGCAACAUUCCGAGGGGACCGUCCCCUCGGUAAUGGCGAAUAGGACCCA [U12G G80A] | 0.906
GGCCGGCAUGGGCCCAGCCUCCUCGCUGGCGCCGGCUGGGCAACAUUCCGAAGGGACCGUCCCCUCGGUAAUGGCGAAUGGGACCCA [U12G G52A] | 1.05
GGCCGGCAUGGGCCCAGCCUCCUCGCUGGCGCCGGCUGGGCAACAUUCCGAGGGGACCGUCCCCUCGCUAAUGGCGAAUGGGACCCA [U12G G68C] | 0.914
GGCCGGCAUGGGCCCAGCCUCCUCGCUGGCGCCGGCUGGGCAACAUUCCGAGGGGACCGUCCCCUCGAUAAUGGCGAAUGGGACCCA [U12G G68A] | 0.529
GGCCGGCAUGGGCCCAGCCUCCACGCUGGCGCCGGCUGGGCAACAUUCCGAGGGGACCGUCCCCUCGGUAAUGGCGAAUGGGACCCA [U12G U23A] | 0.875
GGCCGGCAUGGGCCCAGCCUCCUCGCUGGCACCGGCUGGGCAACAUUCCGAGGGGACCGUCCCCUCGGUAAUGGCGAAUGGGACCCA [U12G G31A] | 0.0504
GGCCGGCAUGGGCCCAGCCUCCUCGCUGGCGCCGGCUGGGCAACAUUCCGAGCGGACCGUCCCCUCGGUAAUGGCGAAUGGGACCCA [U12G G53C] | 0.831
GGCCGGCAUGGGCCCAGCCUCCUCGCCGGCGCCGGCUGGGCAACAUUCCGAGGGGACCGUCCCCUCGGUAAUGGCGAAUGGGACCCA [U12G U27C] | 0.776
GGCCGGCAUGGGCCCAGCCUCCUCGCGGGCGCCGGCUGGGCAACAUUCCGAGGGGACCGUCCCCUCGGUAAUGGCGAAUGGGACCCA [U12G U27G] | 0.639
GGCCGGCAUGGGCCCAGCCUCCUCGCUGGCGCCGGCUGGGCAACAUUCCGAGGGGACCGUCCCCUCGGUAACGGCGAAUGGGACCCA [U12G U72C] | 0
GGCCGGCAUGGGCCCAGCCUCCUCGCUGGCGCCGGCUGGGCAACAUUCCGAGGGGACCGUCCCCUCGGUAAGGGCGAAUGGGACCCA [U12G U72G] | 0.128

Variant | self-cleavage
GGCCGGCAUGGGCCCAGCCUCCUCGCUGGCGCCGGCUGGGCAACACUCCGAGGGGACCGUCCCCUCGGUAAUGGCGAAUGGGACCCA [U12G U46C] | 1.02
GGCCGGCAUGGGCCCAGCCUCCUCGCUGGCGCCGGCUGGGCAACAUUCCGAGGGGACCGUCCCCUCGGUAAUAGCGAAUGGGACCCA [U12G G73A] | 0.323
GGCCGGCAUGGGCCCAGCCUCCUCGCUGGCGCCGGCUGGGCAACAUUCCGAGGCGACCGUCCCCUCGGUAAUGGCGAAUGGGACCCA [U12G G54C] | 0.831
GGCCGGCAUGGGCCCAGCCUCCUCGCUGGCGCCGGCUGGGCAACAUUCCGAGGGGACCGUCCCCUCGGCAAUGGCGAAUGGGACCCA [U12G U69C] | 1.35
GGCCGGCAUGGGCCCAGCCUCCUCGCUGGCGCCGGCUGGGCAACAUUCCGAGGGGACCGACCCCUCGGUAAUGGCGAAUGGGACCCA [U12G U60A] | 0.68
GGCCGGCAUGGGCCCAGCCUCCUCGCUGGCGCCGGCUGUGCAACAUUCCGAGGGGACCGUCCCCUCGGUAAUGGCGAAUGGGACCCA [U12G G39U] | 0.447
GGCCGGCAUGGGCCCAGCCUCCUCGCUGGCGCCGGCCGGGCAACAUUCCGAGGGGACCGUCCCCUCGGUAAUGGCGAAUGGGACCCA [U12G U37C] | 0.692
GGCCGGCAUGGGCCCAGCCUCCUCGCUGGCGCCGGCGGGGCAACAUUCCGAGGGGACCGUCCCCUCGGUAAUGGCGAAUGGGACCCA [U12G U37G] | 0.277
GGCCGGCAUGGGCCCAGCCUCCUCGCUGGCGCCGGCUGGUCAACAUUCCGAGGGGACCGUCCCCUCGGUAAUGGCGAAUGGGACCCA [U12G G40U] | 0.655
GGCCGGCAUGGUACCAGCCUCCUCGCUGGCGCCGGCUGGGCAACCUUCCGAGGGGACCGUCCCCUCGGUAAUGGCGAAUGGGACCCA [C13A A45C] | 0.0707
GGCCGGCAUGGUACCAGCCUCCUCGCUGGCGCCGGCUGGGCAACUUUCCGAGGGGACCGUCCCCUCGGUAAUGGCGAAUGGGACCCA [C13A A45U] | 0.128
GGCCGGCAUGGGCCCAGCCUCCUCGCUGGCGCCGGCUGGGCAACAUUCCGAGGGGACCGUCCCCUCCGUAAUGGCGAAUGGGACCCA [U12G G67C] | 0.962
GGCCGGCAUGGGCCCAGCCUCCUCGCUGGCGCCGGCUGGGCAACAUUCCGAGGGGACCGUCCCCUCAGUAAUGGCGAAUGGGACCCA [U12G G67A] | 0.923
GGCCGGCAUGGGCCCAGCCUCCUCGCUGGCGCCGGCUGGGCAACAUUCCGAGGGAACCGUCCCCUCGGUAAUGGCGAAUGGGACCCA [U12G G55A] | 0.703
GGCCGGCAUGGGCCCAGCCUCCUCGCUCGCGCCGGCUGGGCAACAUUCCGAGGGGACCGUCCCCUCGGUAAUGGCGAAUGGGACCCA [U12G G28C] | 0
GGCCGGCAUGGGCCCAGCCUCCUCGCUGGCGCCCGCUGGGCAACAUUCCGAGGGGACCGUCCCCUCGGUAAUGGCGAAUGGGACCCA [U12G G34C] | 0.172

Source: the RNAGym collection of RNA variant scans (doi:10.7554/elife.80360)
